Test results reported in paper PMC2976697.

Molecular target: Helicobacter pylori CCUG 17874 L-asparaginase (Helicobacter pylori CCUG 17874) (UniProt O25424)
Experiment: non-reducing SDS-PAGE with LC-MS/MS of the band; active Superdex 75 fractions of BCF, mixed with non-reducing SDS buffer, 10-12% SDS-PAGE; band at about 121 kDa cut out, trypsin digested and identified by LC-MS/MS

“Helicobacter pylori CCUG 17874 L-asparaginase (from UniProt O25424 1-330) (enzyme)” gave a stoichiometry N of 4.
